Data from patent publication US20230212319A1, “NOVEL ANTIGEN BINDING DOMAINS AND SYNTHETIC ANTIGEN RECEPTORS INCORPORATING THE SAME” (University of Southern California, priority 2020, published 2023).

B1: 22083 (protein)
chain: MALPVTALLLPLALLLHAARPQLQLQESGPGLVKPSETLSLTCTVSGDSISSGDYYWGWIRQPPGKGLEWIGHIYYSGVTYYNPSLKSRVTISVDTSRNQFSLKLSSVTAADTAVYYCTREDSSNWRSRGQGTLVTVSSLESGGGGSFEEVQLLESGGGLVQPGGSLRLSCAASGFTFSSYAMSWVRQAPGKGLEWVSSISGSGDYIYYADSVKGRFTISRDISKNTLYLQMNSLRAEDTAVYYCAKEGTGANSSLADYRGQGTLVTVSSTRDKTHTCPPCPAIPEDTFFPSPESSCDVKLVEKSFETDTNLNFQNLSVIGFRILLLKVAGFNLLMTLRLWSS
B2: 22099 (protein)
chain: MALPVTALLLPLALLLHAARPQVQLVESGGGLVQPGGSLRLSCAASGFTFTNHAMSWVRQAPGKGLELVSSISGNGRTTYYADSVKGRFTISRDISKNTLDLQMNSLRAEDTAVYYCAKDGGETLVDSRGQGTLVTVSSLEGQPKANPTVTLFPPSSEELQANKATLVCLISDFYPGAVTVAWKADGSPVKAGVETTKPSKQSNNKYAASSYLSLTPEQWKSHRSYSCQVTHEGSTVEKTVAPTECSGRADCGFTSESYQQGVLSATILYEILLGKATLYAVLVSALVLMAMVKRKDSRGRAKRSGSGATNFSLLKQAGDVEENPGPTSMDWIWRILFLVGAATGAHSFEEVQLLESGGGLVQPGGSLRLSCAASGFTFSSYAMSWVRQAPGKGLEWVSSISGSGDYIYYADSVKGRFTISRDISKNTLYLQMNSLRAEDTAVYYCAKEGTGANSSLADYRGQGTLVTVSSTRASTKGPSVFPLAPSSKSTSGGTAALGCLVKDYFPEPVTVSWNSGALTSGVHTFPAVLQSSGLYSLSSVVTVPSSSLGTQTYICNVNHKPSNTKVDKRVEPKSCIPEDTFFPSPESSCDVKLVEKSFETDTNLNFQNLSVIGFRILLLKVAGFNLLMTLRLWSSRAKRSGSGVKQTLNFDLLKLAGDVESNPGPSRGHMTEYKPTVRLATRDDVPRAVRTLAAAFADYPATRHTVDPDRHIERVTELQELFLTRVGLDIGKVWVADDGAAVAVWTTPESVEAGAVFAEIGPRMAELSGSRLAAQQQMEGLLAPHRPKEPAWFLATVGVSPDHQGKGLGSAVVLPGVEAAERAGVPAFLETSAPRNLPFYERLGFTVTADVEVPEGPRTWCMTRKPGA
B3: 22153 (protein)
chain: MALPVTALLLPLALLLHAARPACEVQLLESGGGLIQPGGSLRLSCAASGFTFSSHAMTWVRQAPGKGLEWVSAISGSGDYTHYADSVKGRFTISRDNSKNTVYLQMNSLRAEDSAVYYCAKDEDGGSLLGHRGQGTLVTVSSGTGGGGSGGGGSGGGGSEFSYVLTQPPSVSVAPGQTARITCGGNNIGGKSVHWYQQPPGQAPVVVVYDDSDRPSGIPERFSGSNSGNTATLTISRVEAGDEAVYYCQVWDSSSDHVVFGGGTKLTVLLEGQPKANPTVTLFPPSSEELQANKATLVCLISDFYPGAVTVAWKADGSPVKAGVETTKPSKQSNNKYAASSYLSLTPEQWKSHRSYSCQVTHEGSTVEKTVAPTECSPIKTDVITMDPKDNCSKDANDTLLLQLTNTSAYYMYLLLLLKSVVYFAIITCCLLRRTAFCCNGEKSRAKRSGSGATNFSLLKQAGDVEENPGPTSATMDWIWRILFLVGAATGAHSGPQVQLQESGGGLAQAGGSLRLSCAASGRTFSMGWFRQAPGKEREFVAAITYSGGSPYYASSVRGRFTISRDNAKNTVYLQMNSLKPEDTAVYYCAANPTYGSDWNAENWGQGTQVTVSSGSGGGGSGGGGSGGGGSFEQLQLQESGPGLVKPSETLSLTCTVSGGSISSSSYFWGWIRQPPGKGLEWIGSIYYSGITYYNPSLKSRVTISVDTSKNQFSLKLSSVTAADTAVYYCARHDGAVAGLFDYWGQGTLVTVSSATRASTKGPSVFPLAPSSKSTSGGTAALGCLVKDYFPEPVTVSWNSGALTSGVHTFPAVLQSSGLYSLSSVVTVPSSSLGTQTYICNVNHKPSNTKVDKRVEPKSCEVKTDSTDHVKPKETENTKQPSKSCHKPKAIVHTEKVNMMSLTVLGLRMLFAKTVAVNFLLTAKLFFLRAKRSGSGVKQTLNFDLLKLAGDVESNPGPSRGHMTEYKPTVRLATRDDVPRAVRTLAAAFADYPATRHTVDPDRHIERVTELQELFLTRVGLDIGKVWVADDGAAVAVWTTPESVEAGAVFAEIGPRMAELSGSRLAAQQQMEGLLAPHRPKEPAWFLATVGVSPDHQGKGLGSAVVLPGVEAAERAGVPAFLETSAPRNLPFYERLGFTVTADVEVPEGPRTWCMTRKPGA
B4: 22090 (protein)
chain: MALPVTALLLPLALLLHAARPQLQLQESGPGLVKPSETLSLTCTVSGDSISSGDYYWGWIRQPPGKGLEWIGHIYYSGVTYYNPSLKSRVTISVDTSRNQFSLKLSSVTAADTAVYYCTREDSSNWRSRGQGTLVTVSSLEDKTHTCPPCPAGRADCGFTSESYQQGVLSATILYEILLGKATLYAVLVSALVLMAMVKRKDSRGRAKRSGSGATNFSLLKQAGDVEENPGPTSMDWIWRILFLVGAATGAHSFEVQLLESGGGLIQPGGSLRLSCAASGFTFSSHAMTWVRQAPGKGLEWVSAISGSGDYTHYADSVKGRFTISRDNSKNTVYLQMNSLRAEDSAVYYCAKDEDGGSLLGHRGQGTLVTVSSTRIQNPDPAVYQLRDSKSSDKSVCLFTDFDSQTNVSQSKDSDVYITDKCVLDMRSMDFKSNSAVAWSNKSDFACANAFNNSIIPEDTFFPSPESSCDVKLVEKSFETDTNLNFQNLSVIGFRILLLKVAGFNLLMTLRLWSSRAKRSGSGVKQTLNFDLLKLAGDVESNPGPSRGHMTEYKPTVRLATRDDVPRAVRTLAAAFADYPATRHTVDPDRHIERVTELQELFLTRVGLDIGKVWVADDGAAVAVWTTPESVEAGAVFAEIGPRMAELSGSRLAAQQQMEGLLAPHRPKEPAWFLATVGVSPDHQGKGLGSAVVLPGVEAAERAGVPAFLETSAPRNLPFYERLGFTVTADVEVPEGPRTWCMTRKPGA
B5: 22152 (protein)
chain: MALPVTALLLPLALLLHAARPEVQLLESGGGLVQPGGSLRLSCAASGFTFSSYAMSWVRQAPGKGLEWVSSISGSGDYIYYADSVKGRFTISRDISKNTLYLQMNSLRAEDTAVYYCAKEGTGANSSLADYRGQGTLVTVSSGTGGGGSGGGGSGGGGSEFSYVLTQPPSVSVAPGQTARITCGGNNIGGKSVHWYQQPPGQAPVVVVYDDSDRPSGIPERFSGSNSGNTATLTISRVEAGDEAVYYCQVWDSSSDHVVFGGGTKLTVLLEDLKNVFPPEVAVFEPSEAEISHTQKATLVCLATGFYPDHVELSWWVNGKEVHSGVCTDPQPLKEQPALNDSRYCLSSRLRVSATFWQNPRNHFRCQVQFYGLSENDEWTQDRAKPVTQIVSAEAWGRADCGFTSESYQQGVLSATILYEILLGKATLYAVLVSALVLMAMVKRKDSRGRAKRSGSGATNFSLLKQAGDVEENPGPTSMDWIWRILFLVGAATGAHSFEQLQLQESGPGLVKPSETLSLTCTVSGGSISSSSYFWGWIRQPPGKGLEWIGSIYYSGITYYNPSLKSRVTISVDTSKNQFSLKLSSVTAADTAVYYCARHDGAVAGLFDYWGQGTLVTVSSATRIQNPDPAVYQLRDSKSSDKSVCLFTDFDSQTNVSQSKDSDVYITDKCVLDMRSMDFKSNSAVAWSNKSDFACANAFNNSIIPEDTFFPSPESSCDVKLVEKSFETDTNLNFQNLSVIGFRILLLKVAGFNLLMTLRLWSSRAKRSGSGVKQTLNFDLLKLAGDVESNPGPSRGHMTEYKPTVRLATRDDVPRAVRTLAAAFADYPATRHTVDPDRHIERVTELQELFLTRVGLDIGKVWVADDGAAVAVWTTPESVEAGAVFAEIGPRMAELSGSRLAAQQQMEGLLAPHRPKEPAWFLATVGVSPDHQGKGLGSAVVLPGVEAAERAGVPAFLETSAPRNLPFYERLGFTVTADVEVPEGPRTWCMTRKPGA

Each molecule was assayed on RAJI cells (assay: JNG assay, co-culture with RAJI cells). Details: JNG cells expressing construct, co-culture with Raji.
Assay type: cell-based
In short: (§1)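 Read-out is NFAT-driven GFP measured by flow cytometry after ~4–18 h co-culture of SAR-expressing JNG cells with target cells (E:T about 1:2). SARs were introduced by lentiviral spinfection and selected with puromycin or blasticidin when possible; scores (+/- to 5+ ≈ 5–50% GFP+) are relative to parental JNG cells.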
With B1 the “NFAT-GFP ASSAY: Raji” value was “+/- (refer to approximately 5%, 10%, 20%, 30%, 40% and 50% GFP positive cells)”.

Each molecule was assayed on L363 cells (assay: JNG assay, co-culture with L363 cells). Details: co-culture with L363.
Assay type: cell-based
In short: as §1
With B2 the “NFAT-GFP ASSAY: L363” value was “L363 (2+) (refer to approximately 5%, 10%, 20%, 30%, 40% and 50% GFP positive cells)”. With B3 the “NFAT-GFP ASSAY: L363” value was 2+ (refer to approximately 5%, 10%, 20%, 30%, 40% and 50% GFP positive cells). With B1 the “NFAT-GFP ASSAY: L363” value was “+/- (refer to approximately 5%, 10%, 20%, 30%, 40% and 50% GFP positive cells)”. For B4, the “NFAT-GFP ASSAY: L363” value was 3+ (refer to approximately 5%, 10%, 20%, 30%, 40% and 50% GFP positive cells). In the case of B5, the “NFAT-GFP ASSAY: L363” value is reported as 2+ (refer to approximately 5%, 10%, 20%, 30%, 40% and 50% GFP positive cells).
